According to paper PMC10540216, “Activity Guided Azide-methyllysine Photo-trapping for Substrate Profiling of Lysine Demethylases” (Journal of the American Chemical Society, 2023):

B1: DHX30_HUMAN (protein, UniProt Q7L2E3 1-1194, looked up)
ATP-dependent RNA helicase …: MFSLDSFRKDRAQHRQRQCKLPPPRLPPMCVNPTPGGTISRASRDLLKEFPQPKNLLNSVIGRALGISHAKDKLVYVHTNGPKKKKVTLHIKWPKSVEVEGYGSKKIDAERQAAAAACQLFKGWGLLGPRNELFDAAKYRVLADRFGSPADSWWRPEPTMPPTSWRQLNPESIRPGGPGGLSRSLGREEEEDEEEELEEGTIDVTDFLSMTQQDSHAPLRDSRGSSFEMTDDDSAIRALTQFPLPKNLLAKVIQIATSSSTAKNLMQFHTVGTKTKLSTLTLLWPCPMTFVAKGRRKAEAENKAAALACKKLKSLGLVDRNNEPLTHAMYNLASLRELGETQRRPCTIQVPEPILRKIETFLNHYPVESSWIAPELRLQSDDILPLGKDSGPLSDPITGKPYVPLLEAEEVRLSQSLLELWRRRGPVWQEAPQLPVDPHRDTILNAIEQHPVVVISGDTGCGKTTRIPQLLLERYVTEGRGARCNVIITQPRRISAVSVAQRVSHELGPSLRRNVGFQVRLESKPPSRGGALLFCTVGILLRKLQSNPSLEGVSHVIVDEVHERDVNTDFLLILLKGLQRLNPALRLVLMSATGDNERFSRYFGGCPVIKVPGFMYPVKEHYLEDILAKLGKHQYLHRHRHHESEDECALDLDLVTDLVLHIDARGEPGGILCFLPGWQEIKGVQQRLQEALGMHESKYLILPVHSNIPMMDQKAIFQQPPVGVRKIVLATNIAETSITINDIVHVVDSGLHKEERYDLKTKVSCLETVWVSRANVIQRRGRAGRCQSGFAYHLFPRSRLEKMVPFQVPEILRTPLENLVLQAKIHMPEKTAVEFLSKAVDSPNIKAVDEAVILLQEIGVLDQREYLTTLGQRLAHISTDPRLAKAIVLAAIFRCLHPLLVVVSCLTRDPFSSSLQNRAEVDKVKALLSHDSGSDHLAFVRAVAGWEEVLRWQDRSSRENYLEENLLYAPSLRFIHGLIKQFSENIYEAFLVGKPSDCTLASAQCNEYSEEEELVKGVLMAGLYPNLIQVRQGKVTRQGKFKPNSVTYRTKSGNILLHKSTINREATRLRSRWLTYFMAVKSNGSVFVRDSSQVHPLAVLLLTDGDVHIRDDGRRATISLSDSDLLRLEGDSRTVRLLKELRRALGRMVERSLRSELAALPPSVQEEHGQLLALLAELLRGPCGSFDVRKTADD
B2: DPOG1_HUMAN (protein, UniProt P54098 1-1239, looked up)
DNA polymerase subunit gamma-1: MSRLLWRKVAGATVGPGPVPAPGRWVSSSVPASDPSDGQRRRQQQQQQQQQQQQQPQQPQVLSSEGGQLRHNPLDIQMLSRGLHEQIFGQGGEMPGEAAVRRSVEHLQKHGLWGQPAVPLPDVELRLPPLYGDNLDQHFRLLAQKQSLPYLEAANLLLQAQLPPKPPAWAWAEGWTRYGPEGEAVPVAIPEERALVFDVEVCLAEGTCPTLAVAISPSAWYSWCSQRLVEERYSWTSQLSPADLIPLEVPTGASSPTQRDWQEQLVVGHNVSFDRAHIREQYLIQGSRMRFLDTMSMHMAISGLSSFQRSLWIAAKQGKHKVQPPTKQGQKSQRKARRGPAISSWDWLDISSVNSLAEVHRLYVGGPPLEKEPRELFVKGTMKDIRENFQDLMQYCAQDVWATHEVFQQQLPLFLERCPHPVTLAGMLEMGVSYLPVNQNWERYLAEAQGTYEELQREMKKSLMDLANDACQLLSGERYKEDPWLWDLEWDLQEFKQKKAKKVKKEPATASKLPIEGAGAPGDPMDQEDLGPCSEEEEFQQDVMARACLQKLKGTTELLPKRPQHLPGHPGWYRKLCPRLDDPAWTPGPSLLSLQMRVTPKLMALTWDGFPLHYSERHGWGYLVPGRRDNLAKLPTGTTLESAGVVCPYRAIESLYRKHCLEQGKQQLMPQEAGLAEEFLLTDNSAIWQTVEELDYLEVEAEAKMENLRAAVPGQPLALTARGGPKDTQPSYHHGNGPYNDVDIPGCWFFKLPHKDGNSCNVGSPFAKDFLPKMEDGTLQAGPGGASGPRALEINKMISFWRNAHKRISSQMVVWLPRSALPRAVIRHPDYDEEGLYGAILPQVVTAGTITRRAVEPTWLTASNARPDRVGSELKAMVQAPPGYTLVGADVDSQELWIAAVLGDAHFAGMHGCTAFGWMTLQGRKSRGTDLHSKTATTVGISREHAKIFNYGRIYGAGQPFAERLLMQFNHRLTQQEAAEKAQQMYAATKGLRWYRLSDEGEWLVRELNLPVDRTEGGWISLQDLRKVQRETARKSQWKKWEVVAERAWKGGTESEMFNKLESIATSDIPRTPVLGCCISRALEPSAVQEEFMTSRVNWVVQSSAVDYLHLMLVAMKWLFEEFAIDGRFCISIHDEVRYLVREEDRYRAALALQITNLLTRCMFAYKLGLNDLPQSVAFFSAVDIDRCLRKEVTMDCKTPSNPTGMERRYGIPQGEALDIYQIIELTKGSLEKRSQPGP
B3: GTF2I_HUMAN (protein, UniProt P78347 2-998, looked up)
General transcription factor …: AQVAMSTLPVEDEESSESRMVVTFLMSALESMCKELAKSKAEVACIAVYETDVFVVGTERGRAFVNTRKDFQKDFVKYCVEEEEKAAEMHKMKSTTQANRMSVDAVEIETLRKTVEDYFCFCYGKALGKSTVVPVPYEKMLRDQSAVVVQGLPEGVAFKHPENYDLATLKWILENKAGISFIIKRPFLEPKKHVGGRVMVTDADRSILSPGGSCGPIKVKTEPTEDSGISLEMAAVTVKEESEDPDYYQYNIQAGPSETDDVDEKQPLSKPLQGSHHSSEGNEGTEMEVPAEDSTQHVPSETSEDPEVEVTIEDDDYSPPSKRPKANELPQPPVPEPANAGKRKVREFNFEKWNARITDLRKQVEELFERKYAQAIKAKGPVTIPYPLFQSHVEDLYVEGLPEGIPFRRPSTYGIPRLERILLAKERIRFVIKKHELLNSTREDLQLDKPASGVKEEWYARITKLRKMVDQLFCKKFAEALGSTEAKAVPYQKFEAHPNDLYVEGLPENIPFRSPSWYGIPRLEKIIQVGNRIKFVIKRPELLTHSTTEVTQPRTNTPVKEDWNVRITKLRKQVEEIFNLKFAQALGLTEAVKVPYPVFESNPEFLYVEGLPEGIPFRSPTWFGIPRLERIVRGSNKIKFVVKKPELVISYLPPGMASKINTKALQSPKRPRSPGSNSKVPEIEVTVEGPNNNNPQTSAVRTPTQTNGSNVPFKPRGREFSFEAWNAKITDLKQKVENLFNEKCGEALGLKQAVKVPFALFESFPEDFYVEGLPEGVPFRRPSTFGIPRLEKILRNKAKIKFIIKKPEMFETAIKESTSSKSPPRKINSSPNVNTTASGVEDLNIIQVTIPDDDNERLSKVEKARQLREQVNDLFSRKFGEAIGMGFPVKVPYRKITINPGCVVVDGMPPGVSFKAPSYLEISSMRRILDSAEFIKFTVIRPFPGLVINNQLVDQSESEGPVIQESAEPSQLEVPATEEIKETDGSSQIKQEPDPTW
B4: SYVM_HUMAN (protein, UniProt Q5ST30 27-1063, looked up)
Valine--tRNA ligase, …: SVSTQSEPHGSPISRRNREAKQKRLREKQATLEAEIAGESKSPAESIKAWRPKELVLYEIPTKPGEKKDVSGPLPPAYSPRYVEAAWYPWWVREGFFKPEYQARLPQATGETFSMCIPPPNVTGSLHIGHALTVAIQDALVRWHRMRGDQVLWVPGSDHAGIATQAVVEKQLWKERGVRRHELSREAFLREVWQWKEAKGGEICEQLRALGASLDWDRECFTMDVGSSVAVTEAFVRLYKAGLLYRNHQLVNWSCALRSAISDIEVENRPLPGHTQLRLPGCPTPVSFGLLFSVAFPVDGEPDAEVVVGTTRPETLPGDVAVAVHPDDSRYTHLHGRQLRHPLMGQPLPLITDYAVQPHVGTGAVKVTPAHSPADAEMGARHGLSPLNVIAEDGTMTSLCGDWLQGLHRFVAREKIMSVLSEWGLFRGLQNHPMVLPICSRSGDVIEYLLKNQWFVRCQEMGARAAKAVESGALELSPSFHQKNWQHWFSHIGDWCVSRQLWWGHQIPAYLVVEDHAQGEEDCWVVGRSEAEAREVAAELTGRPGAELTLERDPDVLDTWFSSALFPFSALGWPQETPDLARFYPLSLLETGSDLLLFWVGRMVMLGTQLTGQLPFSKVLLHPMVRDRQGRKMSKSLGNVLDPRDIISGVEMQVLQEKLRSGNLDPAELAIVAAAQKKDFPHGIPECGTDALRFTLCSHGVQAGDLHLSVSEVQSCRHFCNKIWNALRFILNALGEKFVPQPAEELSPSSPMDAWILSRLALAAQECERGFLTRELSLVTHALHHFWLHNLCDVYLEAVKPVLWHSPRPLGPPQVLFSCADLGLRLLAPLMPFLAEELWQRLPPRPGCPPAPSISVAPYPSACSLEHWRQPELERRFSRVQEVVQVLRALRATYQLTKARPRVLLQSSEPGDQGLFEAFLEPLGTLGYCGAVGLLPPGAAAPSGWAQAPLSDTAQVYMELQGLVDPQIQLPLLAARRYKLQKQLDSLTARTPSEGEAGTQRQQKLSSLQLELSKLDKAASHLRQLMDEPPAPGSPEL
B5: NU133_HUMAN (protein, UniProt Q8WUM0 1-1156, looked up)
Nuclear pore complex protein …: MFPAAPSPRTPGTGSRRGPLAGLGPGSTPRTASRKGLPLGSAVSSPVLFSPVGRRSSLSSRGTPTRMFPHHSITESVNYDVKTFGSSLPVKVMEALTLAEVDDQLTINIDEGGWACLVCKEKLIIWKIALSPITKLSVCKELQLPPSDFHWSADLVALSYSSPSGEAHSTQAVAVMVATREGSIRYWPSLAGEDTYTEAFVDSGGDKTYSFLTAVQGGSFILSSSGSQLIRLIPESSGKIHQHILPQGQGMLSGIGRKVSSLFGILSPSSDLTLSSVLWDRERSSFYSLTSSNISKWELDDSSEKHAYSWDINRALKENITDAIWGSESNYEAIKEGVNIRYLDLKQNCDGLVILAAAWHSADNPCLIYYSLITIEDNGCQMSDAVTVEVTQYNPPFQSEDLILCQLTVPNFSNQTAYLYNESAVYVCSTGTGKFSLPQEKIVFNAQGDSVLGAGACGGVPIIFSRNSGLVSITSRENVSILAEDLEGSLASSVAGPNSESMIFETTTKNETIAQEDKIKLLKAAFLQYCRKDLGHAQMVVDELFSSHSDLDSDSELDRAVTQISVDLMDDYPASDPRWAESVPEEAPGFSNTSLIILHQLEDKMKAHSFLMDFIHQVGLFGRLGSFPVRGTPMATRLLLCEHAEKLSAAIVLKNHHSRLSDLVNTAILIALNKREYEIPSNLTPADVFFREVSQVDTICECLLEHEEQVLRDAPMDSIEWAEVVINVNNILKDMLQAASHYRQNRNSLYRREESLEKEPEYVPWTATSGPGGIRTVIIRQHEIVLKVAYPQADSNLRNIVTEQLVALIDCFLDGYVSQLKSVDKSSNRERYDNLEMEYLQKRSDLLSPLLSLGQYLWAASLAEKYCDFDILVQMCEQTDNQSRLQRYMTQFADQNFSDFLFRWYLEKGKRGKLLSQPISQHGQLANFLQAHEHLSWLHEINSQELEKAHATLLGLANMETRYFAKKKTLLGLSKLAALASDFSEDMLQEKIEEMAEQERFLLHQETLPEQLLAEKQLNLSAMPVLTAPQLIGLYICEENRRANEYDFKKALDLLEYIDEEEDININDLKLEILCKALQRDNWSSSDGKDDPIEVSKDSIFVKILQKLLKDGIQLSEYLPEVKDLLQADQLGSLKSNPYFEFVLKANYEYYVQGQI

These molecules were tested on KDM4A-I71AzF (assay: CASI: photo-crosslinking with HEK293T cell extracts, StrepTactin enrichment and LC-MS/MS proteomics). Conditions: sheet "Final results but with 0.01".
Type: binding, human
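Note: lysates from HEK293T cells pretreated with a KDM4 inhibitor to raise proteome methylation, affinity-purified after ±UV, gel-resolved, trypsin-digested, with exclusive unique peptides per protein averaged per condition.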

Molecule | Fold change (+UV/-UV)
B1 | 0.75
B2 | 0
B3 | 3
B4 | 0.5
B5 | 0.8
